Results from article PMC9177983, “Mechanism of transcription modulation by the transcription-repair coupling factor” (Nucleic Acids Research, 2021).

Target: reconstituted elongation complex (EC): His-tagged E. coli RNAP core complex on template DNA, non-template DNA … (E. coli, Core RNAP assembled with biotinylated 49-mer template/non-template DNA and RNA primer (nucleic acid sequences in the supplement). The text gives only 'RNAP core complex' from pIA900; alpha2-beta-beta')
Sequence (A1AGI6 whole entry, chain 1 of 4): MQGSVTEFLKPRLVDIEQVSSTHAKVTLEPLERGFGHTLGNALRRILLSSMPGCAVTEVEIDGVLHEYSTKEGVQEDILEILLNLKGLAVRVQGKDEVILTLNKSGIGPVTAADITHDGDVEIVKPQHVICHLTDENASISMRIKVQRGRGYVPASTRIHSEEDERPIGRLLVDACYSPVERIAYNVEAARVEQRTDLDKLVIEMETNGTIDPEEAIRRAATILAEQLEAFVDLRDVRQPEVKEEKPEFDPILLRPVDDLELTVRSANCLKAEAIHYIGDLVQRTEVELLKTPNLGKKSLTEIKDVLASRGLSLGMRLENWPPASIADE
Sequence (A1AIF9 whole entry, chain 2 of 4, further chain): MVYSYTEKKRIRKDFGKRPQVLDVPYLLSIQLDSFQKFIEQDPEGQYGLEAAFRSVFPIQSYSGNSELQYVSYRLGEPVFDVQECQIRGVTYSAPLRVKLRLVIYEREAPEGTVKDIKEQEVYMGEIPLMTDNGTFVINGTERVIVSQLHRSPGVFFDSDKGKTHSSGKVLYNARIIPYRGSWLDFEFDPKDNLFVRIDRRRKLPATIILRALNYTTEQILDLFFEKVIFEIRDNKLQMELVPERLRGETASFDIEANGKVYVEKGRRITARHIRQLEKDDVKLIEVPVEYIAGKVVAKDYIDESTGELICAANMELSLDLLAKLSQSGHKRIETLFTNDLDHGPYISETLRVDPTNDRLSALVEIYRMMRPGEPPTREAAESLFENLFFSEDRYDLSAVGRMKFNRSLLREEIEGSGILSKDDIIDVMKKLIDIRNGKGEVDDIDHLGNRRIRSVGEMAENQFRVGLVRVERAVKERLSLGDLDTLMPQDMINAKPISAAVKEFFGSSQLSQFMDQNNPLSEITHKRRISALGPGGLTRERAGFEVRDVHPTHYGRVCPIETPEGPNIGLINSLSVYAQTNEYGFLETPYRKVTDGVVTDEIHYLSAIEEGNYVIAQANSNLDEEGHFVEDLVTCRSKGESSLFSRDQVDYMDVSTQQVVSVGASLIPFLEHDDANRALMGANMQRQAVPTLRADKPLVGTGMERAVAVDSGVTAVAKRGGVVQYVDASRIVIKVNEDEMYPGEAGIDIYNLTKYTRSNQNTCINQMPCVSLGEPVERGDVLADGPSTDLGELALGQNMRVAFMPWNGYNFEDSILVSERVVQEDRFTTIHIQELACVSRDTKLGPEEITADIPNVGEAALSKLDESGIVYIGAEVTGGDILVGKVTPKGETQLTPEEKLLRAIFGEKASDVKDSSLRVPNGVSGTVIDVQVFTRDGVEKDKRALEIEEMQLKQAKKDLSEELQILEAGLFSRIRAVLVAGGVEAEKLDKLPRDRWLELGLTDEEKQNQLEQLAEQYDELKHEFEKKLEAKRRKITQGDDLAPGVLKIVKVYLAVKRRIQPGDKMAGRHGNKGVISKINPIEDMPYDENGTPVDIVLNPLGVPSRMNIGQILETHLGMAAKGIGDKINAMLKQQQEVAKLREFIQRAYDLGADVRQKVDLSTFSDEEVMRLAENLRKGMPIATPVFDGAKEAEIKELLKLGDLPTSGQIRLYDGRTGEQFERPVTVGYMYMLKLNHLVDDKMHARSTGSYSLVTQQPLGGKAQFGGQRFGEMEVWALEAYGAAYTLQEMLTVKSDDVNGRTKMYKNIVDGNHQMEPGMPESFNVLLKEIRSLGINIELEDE
Sequence (A7ZUK2 whole entry, chain 3 of 4, further chain): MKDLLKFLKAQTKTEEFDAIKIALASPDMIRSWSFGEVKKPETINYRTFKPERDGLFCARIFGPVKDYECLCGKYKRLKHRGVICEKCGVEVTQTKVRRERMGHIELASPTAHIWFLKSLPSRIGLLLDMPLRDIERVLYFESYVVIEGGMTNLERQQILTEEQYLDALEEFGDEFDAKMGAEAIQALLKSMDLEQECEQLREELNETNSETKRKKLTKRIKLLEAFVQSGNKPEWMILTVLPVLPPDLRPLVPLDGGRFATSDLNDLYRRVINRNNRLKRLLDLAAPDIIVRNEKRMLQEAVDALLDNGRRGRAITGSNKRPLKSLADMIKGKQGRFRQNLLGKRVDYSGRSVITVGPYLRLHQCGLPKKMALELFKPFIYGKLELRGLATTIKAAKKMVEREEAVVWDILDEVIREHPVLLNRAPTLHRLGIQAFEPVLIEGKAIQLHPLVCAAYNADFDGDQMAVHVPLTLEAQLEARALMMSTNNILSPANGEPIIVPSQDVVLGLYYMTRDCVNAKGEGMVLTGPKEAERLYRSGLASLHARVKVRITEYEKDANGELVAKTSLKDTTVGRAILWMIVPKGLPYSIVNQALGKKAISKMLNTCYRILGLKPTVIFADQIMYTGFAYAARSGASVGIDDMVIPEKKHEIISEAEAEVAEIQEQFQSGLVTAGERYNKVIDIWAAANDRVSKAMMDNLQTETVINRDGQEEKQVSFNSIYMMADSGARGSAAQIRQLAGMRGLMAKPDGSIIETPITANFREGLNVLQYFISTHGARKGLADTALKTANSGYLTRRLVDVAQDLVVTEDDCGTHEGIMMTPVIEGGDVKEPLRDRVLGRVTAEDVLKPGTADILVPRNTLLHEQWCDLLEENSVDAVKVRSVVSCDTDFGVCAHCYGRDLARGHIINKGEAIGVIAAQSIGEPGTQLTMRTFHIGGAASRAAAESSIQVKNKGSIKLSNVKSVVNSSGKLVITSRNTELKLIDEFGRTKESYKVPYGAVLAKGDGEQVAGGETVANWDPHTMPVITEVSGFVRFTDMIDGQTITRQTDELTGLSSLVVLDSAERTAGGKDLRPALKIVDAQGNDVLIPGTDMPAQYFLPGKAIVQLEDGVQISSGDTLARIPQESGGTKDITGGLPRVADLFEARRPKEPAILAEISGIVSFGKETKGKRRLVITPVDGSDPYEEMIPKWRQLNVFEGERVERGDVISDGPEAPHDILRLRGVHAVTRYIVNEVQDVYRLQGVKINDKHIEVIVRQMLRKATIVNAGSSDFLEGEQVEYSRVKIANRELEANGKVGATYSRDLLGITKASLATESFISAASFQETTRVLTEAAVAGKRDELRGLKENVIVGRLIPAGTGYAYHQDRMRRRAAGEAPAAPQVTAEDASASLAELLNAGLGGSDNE
Sequence (A1AHI0 2-91, chain 4 of 4, further chain): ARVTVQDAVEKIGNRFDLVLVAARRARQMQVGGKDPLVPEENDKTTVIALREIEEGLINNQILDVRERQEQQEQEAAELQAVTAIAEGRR
Test: SPR; BIAcore T200, SA chip; reconstituted EC on biotinylated 49-mer immobilised (550 RU after 1 M KCl wash); Mfd 0-640 nM flowed in SPR buffer (30 mM Tris/HCl pH 7.6, 40 mM KCl, 5 mM MgCl2, 0.005% P20, 0.25 mM EDTA, 0.5 mM DTT) with 0.5 mM ATPɣS; 20°C; 1:1 steady state affinity fit
Settings: both partners purified

B1: Mfd, the bacterial transcription-repair coupling factor (wild type) (natural protein, E. coli, UniProt P30958 1-1148, looked up)
chain: MPEQYRYTLPVKAGEQRLLGELTGAACATLVAEIAERHAGPVVLIAPDMQNALRLHDEISQFTDQMVMNLADWETLPYDSFSPHQDIISSRLSTLYQLPTMQRGVLIVPVNTLMQRVCPHSFLHGHALVMKKGQRLSRDALRTQLDSAGYRHVDQVMEHGEYATRGALLDLFPMGSELPYRLDFFDDEIDSLRVFDVDSQRTLEEVEAINLLPAHEFPTDKAAIELFRSQWRDTFEVKRDPEHIYQQVSKGTLPAGIEYWQPLFFSEPLPPLFSYFPANTLLVNTGDLETSAERFQADTLARFENRGVDPMRPLLPPQSLWLRVDELFSELKNWPRVQLKTEHLPTKAANANLGFQKLPDLAVQAQQKAPLDALRKFLETFDGPVVFSVESEGRREALGELLARIKIAPQRIMRLDEASDRGRYLMIGAAEHGFVDTVRNLALICESDLLGERVARRRQDSRRTINPDTLIRNLAELHIGQPVVHLEHGVGRYAGMTTLEAGGITGEYLMLTYANDAKLYVPVSSLHLISRYAGGAEENAPLHKLGGDAWSRARQKAAEKVRDVAAELLDIYAQRAAKEGFAFKHDREQYQLFCDSFPFETTPDQAQAINAVLSDMCQPLAMDRLVCGDVGFGKTEVAMRAAFLAVDNHKQVAVLVPTTLLAQQHYDNFRDRFANWPVRIEMISRFRSAKEQTQILAEVAEGKIDILIGTHKLLQSDVKFKDLGLLIVDEEHRFGVRHKERIKAMRANVDILTLTATPIPRTLNMAMSGMRDLSIIATPPARRLAVKTFVREYDSMVVREAILREILRGGQVYYLYNDVENIQKAAERLAELVPEARIAIGHGQMRERELERVMNDFHHQRFNVLVCTTIIETGIDIPTANTIIIERADHFGLAQLHQLRGRVGRSHHQAYAWLLTPHPKAMTTDAQKRLEAIASLEDLGAGFALATHDLEIRGAGELLGEEQSGSMETIGFSLYMELLENAVDALKAGREPSLEDLTSQQTEVELRMPSLLPDDFIPDVNTRLSFYKRIASAKTENELEEIKVELIDRFGLLPDPARTLLDIARLRQQAQKLGIRKLEGNEKGGVIEFAEKNHVNPAWLIGLLQKQPQHYRLDGPTRLKFIQDLSERKTRIEWVRQFMRELEENAIA
notes: Mfd (transcription-repair coupling factor), E. coli; mfd gene without ypet inserted in vector pSH1017, plasmid pHG4137; called full-length Mfd in the cryo-EM section; No tag is stated; purified by conventional chromatography; In the SPR it was flowed with 0.5 mM ATPɣS; also called TRCF; wildtype Mfd; source: E. coli BL21(λDE3)recA, purified (ammonium sulfate, DEAE, heparin Sepharose)
Kd: 127 ± 6 nM
